Measured values: the DeepSol protein solubility set

assay: soluble on expression in E. coli; label from the status in PepcDB or PDB records

Sequence	soluble on expression in E. coli
MRVLISPWGDFRKWKVAKYTFSGKSLESRSTLPIMVDVIRPQETIIIVPDTLSSDFSSQESMWNSVKDEVKEFTNQLGVEDVKIIVVPGSGSFSNGSFFGNPMDAYMFLLYELAKELPLEIKEVHLDVTHGLNYLTFFTVRVVQELLGILSIRKGVVLKTYSSDPFVDGSVRHLRVNLIEEATIDPKPLSEFLEGKFLVNYSMDRVEFGEIARRLKAKELDLGRINSWIASLKHGLPLVFTTMYPQEGEVEGVLEDVVAKFLEGFNVGEGKVVRSISLGKDFGSLAKLYFQLRVLKDLKEMYNLPKDEASVEELLKISEEIFTGRIKHSTKVELDNVANRVEKTEGWVKLSEFFKNANPQVDPRNFFAHAGLEANLVEVKRNGELYLRYTKGKVRWGGKEEKAEKVIREILTSRRWF	soluble
MTLNLSVDEVLTTTRSVRKRLDFDKPVPRDVLMECLELALQAPTGSNSQGWQWVFVEDAAKKKAIADVYLANARGYLSGPAPEYPDGDTRGERMGRVRDSATYLAEHMHRAPVLLIPCLKGREDESAVGGVSFWASLFPAVWSFCLALRSRGLGSCWTTLHLLDNGEHKVADVLGIPYDEYSQGGLLPIAYTQGIDFRPAKRLPAESVTHWNGW	soluble
VQLLEQSGAELVKPGASVKLSCTASGFNIEDSYIHWVKQRPEQGLEWIGRIDPEDGETKYAPKFQGKATITADTSSNTAYLHLRRLTSEDTAIYYCGRGAYYIKEDFWGQGTTLTVSSASTKGPSVFPLAPSSKAGGTAALGCLVKDYFPEPVTVSWNSGALTSGVHTFPAVLQSSGLYSLSSVVTVPSSSLGTQTYICNVNHKPSNTKVDKKVEPA	soluble
SAALTDVQRLQSRVEELERWVYGPGGTRGSRKVADGLVKVQVALGNIASKRERVKILYKKIEDLIKYLDPEYIDRIAIPEASKLQFILAEEQFILSQVALLEQVNALVPVLDSASIKAVPEHAARLQRLAQIHIQQQDQCVAITEESKALLEGYNKTTMLLSKQFVQWDELLCQLEAAKQVKPAEE	soluble
MNNSNRIIPFAFKSSEHGSYEDEMMEMEDVVDVEDYMGGEKYDSYNDAKEDIKDFKTTQRMKKIHRMEKIEQNIASEKIDIIELGTRVMVSTSDKTLNEASLERTIRCGISEATFLGDISMESLVEGMVNPSAADGRFAMLGTSIMLNALKSNIKDLRGTIVGQTTNTNSESKFDKIDLSLMNLSHCQQTSYNIRATGVFSNADLQYVFSLLTFRRNAKLLNKTKQFIKAYFCVACRPRCMIWRYTLRRAGNSQRRAILNLPSAIVSTITQFLLDLTGISDANIPYDQLDPMTPLSISLGEDESMRVQRYEEACRLKDPLTRFFRDAITDCLNELREMPFCLNTGILLSPLRGREQGTSCVTWKDYEGFLKREHDLPSEANMKKRTQFEQRLCDIIPRVRRPVPN	not soluble
SLRIREIEPIVLTSKEKGSATWASIMIVTRVITENGEVGYGEAVPTLRVISVYNAIKQVSKAYIGKEVEEVEKNYHEWYKQDFYLARSFESATAVSAIDIASWDIIGKELGAPIHKLLGGKTRDRVPVYANGWYQDCVTPEEFAEKAKDVVKMGYKALKFDPFGPYYDWIDERGLREAEERVKAVREAVGDNVDILIEHHGRFNANSAIMIAKRLEKYNPGFMEEPVHHEDVIGLRKYKASTHLRVALGERLISEKETAFYVEEGLVNILQPDLTNIGGVTVGRSVIKIAEANDVEVAFHNAFGSIQNAVEIQLSAVTQNLYLLENFYDWFPQWKRDLVYNETPVEGGHVKVPYKPGLGVSINEKIIEQLRAEPIPLDVIEEPVWVVKGTWKNYGV	not soluble
MSFQLDQSTSVIKTAPPGRLEFKNEPIDIASSNIQDLAKMQTLDGYYQQTSLQLPQSQQYHRMYENVYNNQQILYAQTQNFQYPSTLLTNGSLAQTEWRGQQMDTSAYSNTGYSRSSTSQQPQYTQQVTENERIVYKPVDMPSPVDSGIGGDISILNPKEEFFTSADGGSMLERSSERTLSHRDSPLVIPKLYNNLGFQYVLEAPISTSVRRDDDRMTYVNKGQFYTVSLEYTPDLNKCLKSQTVKSQLMVVFREDKTYEEEIKTWQSWHARQHVSKQRILEIDSKNSSGMIGQIEEIGNNAVQFYWNPSDPSGVRISIAVQCLSTDFSTQKGVKGLPLHVQIDTYDGENDKVPFHRGYCQIKVFCDKGAERKLRDEDKRAQKRKVQEYTAGALPGGRKKSDGEYHDQCERSEFYHMRELDKPAALFIAPEEFEPRYVDSTSLSFDMSEIEPIPTKRPRTSERIMLYVRKRDEQIYQPLHVVPASLSGLALAIANKFGADPDKMSGVYKRCAKGITVKVDDEMLRLYCNEDTFIIDVEHATDGSTAATLIEVAPTNPNSYSNS	not soluble
MSNTMQGAHYPQMAFDPTWQMHPAYATATAFNPYNVSFDFTRSPNTSGGSDESMSDGSKIDPKRSPKYLEKRMKNNEAAKKSRASRKHREQKNQTENELLKRKNAALEEELKQAKCELAQMQITIRDMSIEREAYRRENEMLKMVNNKFADSKFEPPQPLRDMTNCNLPYKYELLS	not soluble
MGSDKIHHHHHHMLSIAIAAEFELSEKIVETLEQTQLEIESLTIIEIKPFKEEQGIRFNNKAVVQIMPEEADWTEFNYVLFAGTIEHVDLLAKIADSGCIVIDVLGICASLANIPVVVPGINDDQLIELRQRNIVSLPNPQVTQCALAISNIVNSIHQLVVTSLLPASYVEAEQVAKLAGQTAQLLNGIPLDTEQQRLAFDVFPVQTQNLVIQLQKIYPQLENIVFHQIQVPVFYGMGQFVTALSDYLVDIESQLHFWQENELIQYHAEKLITPVTHGENENNEEKVKLHISTLSAAENKIEFWSVADEQHFNLALMAVKLLELIG	not soluble
MGSLNGGSPEGVESQDGVDHFRAMIVEFMASKKMQLEFPPSLNSHDRLRVHQIAEEHGLRHDSSGEGKRRFITVSKRAGSHHHHHH	soluble
SLSESFPLLEKYRIGKVIGDGNFAVVKECVDRYTGKEFALKIIDKAKCCGKEHLIENEVSILRRVKHPNIIMLVEEMETATDLFLVMELVKGGDLFDAITSSTKYTERDGSAMVYNLANALRYLHSLSIVHRDIKPENLLVCEYPDGTKSLKLGDFGLATVVEGPLYTVCGTPTYVAPEIIAETGYGLKVDVWAAGVITYILLCGFPPFRSENNLQEDLFDQILAGKLEFPAPYWDNITDSAKELISQMLQVNVEARCTAGEILSHPWVSDDASQENNMQAEVTGKLKQHFNNALPKQNSTTTGVSVIMNTALDK	soluble
MGSDKIHHHHHHMLSLTEQLNRGPVVSDGAMATELEKRGVATNSALWSATAMLDHPDAIQAVHQSYLDAGAKIMTTNTYQANVPAFEQAGIAAVQARQLIQQAVTIAHTARDASHVTDAVIAGSIGPYGAYLADGSEYTGAYQLTPSAYQDFHRERLALIMAAGVDVLALETMPRLDEVQALVQLITTTWPQQPYWVSFSIKDPQTLCDGTSLAVAAKWVAAQPNVVAVGVNCTTLENIAPALTTLKAAVAVPLIVYPNSGDQYDPVTKTWQETHLSHQFASFVPQWLAAGARIIGGCCRTTPKDIATVARALSVSDSAKL	not soluble
MGSDKIHHHHHHMANVKWTMKAREFVNCNCAYGCPCQFNAMPTHGFCQAVTGIEIESGHHGATKLDGLRLVGIFRWPGAIHQGGGEAAVVVDERASEAQREALLRILGGQDTKPGATIFEVFSTTLEKFHDPIFAPIEFEVDVDARTGRLHVEGVADGHGEPIKNPVTGAEHRARIDLPHGFEYAMAEIGRGWTKATGPIKFEVADTHSHFANLHLTQSGVVH	not soluble
MSLGIPKHDFYLYQSQWVSVKKKPMVHLLPHWNWENKELASKVADSEGKIPVRAYSNASSVELFLNGKSLGLKTFNKKQTSDGRTYQEGANANELYLEWKVAYQPGTLEAIARDESGKEIARDKITTAGKPAAVRLIKEDHAIAADGKDLTYIYYEIVDSQGNVVPTANNLVRFQLHGQGQLVGVDNGEQASRERYKAQADGSWIRKAFNGKGVAIVKSTEQAGKFTLTAHSDLLKSNQVTVFTGKKEGQEKTVLGTEVPKVQTIIGEAPEMPTTVPFVYSDGSRAERPVTWSSEGHHHHHH	soluble
